“And” between values parts separate entries of the source, which are not always exact repeats. Equal values may be shown once. A value given as a limit tells only on which side of the number the result lay.

Holding throughout (test): pulldown; 150 mM NaCl, 50 mM Tris pH 8.0, 0.25% NP-40, 1 mM DTT; 4 C, 2 h; 100 ug nuclear extract
What all share (conditions): protein: extract; label: 5' biotin (strand 1)

Data set [1] has as its target T1, BANP (Homo sapiens, UniProt Q8N9N5).
T1 sequence: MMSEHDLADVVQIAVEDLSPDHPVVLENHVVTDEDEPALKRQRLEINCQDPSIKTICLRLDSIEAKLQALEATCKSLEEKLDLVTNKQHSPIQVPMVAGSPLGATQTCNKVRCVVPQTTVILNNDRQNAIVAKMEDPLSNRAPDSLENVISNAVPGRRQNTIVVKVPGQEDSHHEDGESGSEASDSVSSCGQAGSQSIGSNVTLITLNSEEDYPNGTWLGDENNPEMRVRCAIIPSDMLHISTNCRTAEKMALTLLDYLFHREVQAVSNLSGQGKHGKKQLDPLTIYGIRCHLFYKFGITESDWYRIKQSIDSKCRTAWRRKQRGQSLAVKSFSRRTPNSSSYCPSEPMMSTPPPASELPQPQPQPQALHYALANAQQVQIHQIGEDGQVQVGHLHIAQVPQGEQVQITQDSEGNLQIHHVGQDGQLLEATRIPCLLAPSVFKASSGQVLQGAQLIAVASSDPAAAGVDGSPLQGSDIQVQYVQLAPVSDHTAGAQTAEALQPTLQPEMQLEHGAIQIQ

The target in data set [2] is T2, VEZF1 (Homo sapiens, UniProt Q14119).
T2 sequence: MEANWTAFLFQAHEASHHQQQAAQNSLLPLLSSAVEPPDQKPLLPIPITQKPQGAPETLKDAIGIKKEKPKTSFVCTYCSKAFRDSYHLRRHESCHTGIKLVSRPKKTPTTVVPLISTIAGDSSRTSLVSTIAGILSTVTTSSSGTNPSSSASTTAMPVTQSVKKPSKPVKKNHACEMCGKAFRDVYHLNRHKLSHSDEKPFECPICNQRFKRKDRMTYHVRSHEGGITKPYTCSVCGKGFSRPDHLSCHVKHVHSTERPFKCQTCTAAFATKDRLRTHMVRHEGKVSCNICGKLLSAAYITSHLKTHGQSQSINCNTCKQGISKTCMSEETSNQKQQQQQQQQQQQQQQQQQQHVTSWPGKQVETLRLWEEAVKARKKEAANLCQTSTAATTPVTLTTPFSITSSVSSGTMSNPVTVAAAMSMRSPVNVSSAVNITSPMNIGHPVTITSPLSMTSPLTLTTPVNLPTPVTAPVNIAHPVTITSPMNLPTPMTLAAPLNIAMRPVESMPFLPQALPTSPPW

Data set [3] deals with T3, MAZ (Homo sapiens, UniProt P56270).
T3 sequence: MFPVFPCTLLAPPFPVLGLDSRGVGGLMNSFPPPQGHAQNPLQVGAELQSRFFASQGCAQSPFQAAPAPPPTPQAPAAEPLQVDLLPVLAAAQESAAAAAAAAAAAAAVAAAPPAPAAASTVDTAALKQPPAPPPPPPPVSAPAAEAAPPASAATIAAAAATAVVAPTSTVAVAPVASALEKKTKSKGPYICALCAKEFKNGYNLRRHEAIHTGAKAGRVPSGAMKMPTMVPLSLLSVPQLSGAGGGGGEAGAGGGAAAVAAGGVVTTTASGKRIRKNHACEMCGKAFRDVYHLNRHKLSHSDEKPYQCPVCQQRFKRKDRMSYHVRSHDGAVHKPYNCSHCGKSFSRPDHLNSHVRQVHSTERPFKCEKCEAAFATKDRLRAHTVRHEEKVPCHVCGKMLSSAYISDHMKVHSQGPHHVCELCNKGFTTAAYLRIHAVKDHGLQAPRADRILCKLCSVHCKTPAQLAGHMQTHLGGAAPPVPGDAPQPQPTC

The target in data set [4] is T4, MAZ (Homo sapiens, UniProt P56270).
T4 sequence: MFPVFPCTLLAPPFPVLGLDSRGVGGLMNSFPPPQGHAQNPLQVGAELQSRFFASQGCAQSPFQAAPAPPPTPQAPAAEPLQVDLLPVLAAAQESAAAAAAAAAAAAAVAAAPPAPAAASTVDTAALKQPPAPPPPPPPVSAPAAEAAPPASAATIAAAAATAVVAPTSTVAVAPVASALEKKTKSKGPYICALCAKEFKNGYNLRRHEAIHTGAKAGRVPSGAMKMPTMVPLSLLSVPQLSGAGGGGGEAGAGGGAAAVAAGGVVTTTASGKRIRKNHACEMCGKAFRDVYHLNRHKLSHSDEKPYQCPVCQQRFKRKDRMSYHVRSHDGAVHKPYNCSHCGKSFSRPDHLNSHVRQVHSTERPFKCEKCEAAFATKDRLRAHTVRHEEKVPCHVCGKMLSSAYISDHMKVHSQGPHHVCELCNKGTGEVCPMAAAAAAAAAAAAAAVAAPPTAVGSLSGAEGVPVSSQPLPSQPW
The source holds these as a separate data set.

The target of data set [5] is HOXB9 (Homo sapiens, UniProt P17482).
HOXB9, sequence (P17482 whole entry): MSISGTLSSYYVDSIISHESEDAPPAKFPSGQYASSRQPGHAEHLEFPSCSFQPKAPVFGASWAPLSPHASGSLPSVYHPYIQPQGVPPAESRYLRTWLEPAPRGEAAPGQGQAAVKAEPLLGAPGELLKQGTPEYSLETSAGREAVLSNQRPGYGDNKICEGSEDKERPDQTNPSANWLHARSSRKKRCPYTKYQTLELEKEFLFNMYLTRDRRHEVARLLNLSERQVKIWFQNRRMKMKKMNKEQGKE
The target of data set [6] is KLF1 (Homo sapiens, UniProt Q13351).
KLF1, sequence (Q13351 whole entry): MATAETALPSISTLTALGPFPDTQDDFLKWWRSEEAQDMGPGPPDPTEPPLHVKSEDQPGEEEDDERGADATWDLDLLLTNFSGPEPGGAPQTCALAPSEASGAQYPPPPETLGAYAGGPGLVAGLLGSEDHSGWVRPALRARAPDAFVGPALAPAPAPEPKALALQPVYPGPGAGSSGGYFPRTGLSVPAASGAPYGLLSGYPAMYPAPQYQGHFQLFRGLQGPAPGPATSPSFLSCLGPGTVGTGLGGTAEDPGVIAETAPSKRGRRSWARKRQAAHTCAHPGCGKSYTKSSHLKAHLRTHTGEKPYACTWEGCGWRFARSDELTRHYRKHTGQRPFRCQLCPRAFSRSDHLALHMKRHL
Data set [7] deals with SP1 (Homo sapiens, UniProt P08047).
SP1, sequence (P08047 whole entry): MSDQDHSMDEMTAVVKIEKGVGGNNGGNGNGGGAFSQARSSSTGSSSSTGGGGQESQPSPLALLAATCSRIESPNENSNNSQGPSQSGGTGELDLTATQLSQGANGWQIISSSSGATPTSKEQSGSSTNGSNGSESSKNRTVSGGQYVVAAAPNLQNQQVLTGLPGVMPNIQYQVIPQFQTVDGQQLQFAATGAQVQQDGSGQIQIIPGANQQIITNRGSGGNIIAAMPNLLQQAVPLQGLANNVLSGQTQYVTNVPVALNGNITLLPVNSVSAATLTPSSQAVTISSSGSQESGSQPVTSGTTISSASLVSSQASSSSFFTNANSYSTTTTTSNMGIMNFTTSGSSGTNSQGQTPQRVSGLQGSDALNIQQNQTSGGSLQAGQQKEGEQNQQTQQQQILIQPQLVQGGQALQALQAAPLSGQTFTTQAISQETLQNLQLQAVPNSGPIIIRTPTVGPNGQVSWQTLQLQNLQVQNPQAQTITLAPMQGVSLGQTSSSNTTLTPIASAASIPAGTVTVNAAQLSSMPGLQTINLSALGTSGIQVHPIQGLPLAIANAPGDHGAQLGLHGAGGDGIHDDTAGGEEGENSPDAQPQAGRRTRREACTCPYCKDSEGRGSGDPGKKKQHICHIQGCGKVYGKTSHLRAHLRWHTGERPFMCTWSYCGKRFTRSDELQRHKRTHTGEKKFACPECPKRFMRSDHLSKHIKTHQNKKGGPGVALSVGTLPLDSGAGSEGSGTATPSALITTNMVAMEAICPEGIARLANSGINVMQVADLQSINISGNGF
Data set [8] concerns the target T5, ZNF148 (Homo sapiens, UniProt Q9UQR1).
T5 sequence: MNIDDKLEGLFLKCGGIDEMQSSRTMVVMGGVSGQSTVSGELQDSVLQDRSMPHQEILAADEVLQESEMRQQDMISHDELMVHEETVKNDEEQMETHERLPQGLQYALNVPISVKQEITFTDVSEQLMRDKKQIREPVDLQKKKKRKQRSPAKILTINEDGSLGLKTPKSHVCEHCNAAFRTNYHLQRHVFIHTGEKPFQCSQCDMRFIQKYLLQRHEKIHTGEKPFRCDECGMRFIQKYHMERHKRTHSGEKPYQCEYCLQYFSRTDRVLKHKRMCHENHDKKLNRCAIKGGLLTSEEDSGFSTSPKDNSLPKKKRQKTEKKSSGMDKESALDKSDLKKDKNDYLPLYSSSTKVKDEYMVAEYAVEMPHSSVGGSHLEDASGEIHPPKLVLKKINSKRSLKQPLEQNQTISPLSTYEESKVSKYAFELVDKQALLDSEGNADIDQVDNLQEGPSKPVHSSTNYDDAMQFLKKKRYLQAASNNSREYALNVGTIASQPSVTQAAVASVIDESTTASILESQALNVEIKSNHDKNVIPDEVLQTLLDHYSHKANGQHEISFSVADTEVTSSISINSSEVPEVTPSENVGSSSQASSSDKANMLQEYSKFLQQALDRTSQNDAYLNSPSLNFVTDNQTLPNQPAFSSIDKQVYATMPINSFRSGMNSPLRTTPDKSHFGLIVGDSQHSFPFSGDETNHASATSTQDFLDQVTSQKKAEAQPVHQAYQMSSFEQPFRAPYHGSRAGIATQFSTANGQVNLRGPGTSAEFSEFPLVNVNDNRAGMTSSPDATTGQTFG

Data set [9] has as its target SP3 (Homo sapiens, UniProt Q02447).
Data set [10] has as its target TFAP2A (Homo sapiens, UniProt P05549).
The target in data set [11] is KLF12 (Homo sapiens, UniProt Q9Y4X4).
KLF12, sequence (Q9Y4X4 whole entry): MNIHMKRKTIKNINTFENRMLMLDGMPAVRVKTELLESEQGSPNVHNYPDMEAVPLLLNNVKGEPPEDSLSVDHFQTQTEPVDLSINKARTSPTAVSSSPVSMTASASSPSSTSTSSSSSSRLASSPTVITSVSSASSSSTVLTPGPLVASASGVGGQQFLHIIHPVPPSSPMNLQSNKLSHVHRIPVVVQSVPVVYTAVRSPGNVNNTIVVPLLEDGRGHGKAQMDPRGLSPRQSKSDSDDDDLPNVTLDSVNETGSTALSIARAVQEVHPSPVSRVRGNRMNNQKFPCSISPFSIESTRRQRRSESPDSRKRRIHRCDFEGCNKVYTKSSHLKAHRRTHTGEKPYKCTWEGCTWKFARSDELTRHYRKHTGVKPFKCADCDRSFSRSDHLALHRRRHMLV
For data set [12], the target named is KLF5 (Homo sapiens, UniProt Q13887).
KLF5, sequence (Q13887 whole entry): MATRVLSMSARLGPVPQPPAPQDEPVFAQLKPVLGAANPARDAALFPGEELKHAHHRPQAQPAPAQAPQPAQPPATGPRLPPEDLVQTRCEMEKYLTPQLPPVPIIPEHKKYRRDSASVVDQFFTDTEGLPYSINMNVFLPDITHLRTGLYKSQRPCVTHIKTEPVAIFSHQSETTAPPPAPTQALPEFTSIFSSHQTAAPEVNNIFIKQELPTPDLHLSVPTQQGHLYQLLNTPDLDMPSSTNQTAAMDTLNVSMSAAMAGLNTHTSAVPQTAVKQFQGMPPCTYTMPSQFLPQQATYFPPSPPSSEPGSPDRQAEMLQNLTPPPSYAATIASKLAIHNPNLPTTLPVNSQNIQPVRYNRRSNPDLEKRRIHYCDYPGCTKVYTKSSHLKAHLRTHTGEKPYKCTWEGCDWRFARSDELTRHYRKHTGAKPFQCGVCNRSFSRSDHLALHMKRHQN
Data set [13] has as its target T6, BEND3 (Homo sapiens, UniProt Q5T5X7).
T6 sequence: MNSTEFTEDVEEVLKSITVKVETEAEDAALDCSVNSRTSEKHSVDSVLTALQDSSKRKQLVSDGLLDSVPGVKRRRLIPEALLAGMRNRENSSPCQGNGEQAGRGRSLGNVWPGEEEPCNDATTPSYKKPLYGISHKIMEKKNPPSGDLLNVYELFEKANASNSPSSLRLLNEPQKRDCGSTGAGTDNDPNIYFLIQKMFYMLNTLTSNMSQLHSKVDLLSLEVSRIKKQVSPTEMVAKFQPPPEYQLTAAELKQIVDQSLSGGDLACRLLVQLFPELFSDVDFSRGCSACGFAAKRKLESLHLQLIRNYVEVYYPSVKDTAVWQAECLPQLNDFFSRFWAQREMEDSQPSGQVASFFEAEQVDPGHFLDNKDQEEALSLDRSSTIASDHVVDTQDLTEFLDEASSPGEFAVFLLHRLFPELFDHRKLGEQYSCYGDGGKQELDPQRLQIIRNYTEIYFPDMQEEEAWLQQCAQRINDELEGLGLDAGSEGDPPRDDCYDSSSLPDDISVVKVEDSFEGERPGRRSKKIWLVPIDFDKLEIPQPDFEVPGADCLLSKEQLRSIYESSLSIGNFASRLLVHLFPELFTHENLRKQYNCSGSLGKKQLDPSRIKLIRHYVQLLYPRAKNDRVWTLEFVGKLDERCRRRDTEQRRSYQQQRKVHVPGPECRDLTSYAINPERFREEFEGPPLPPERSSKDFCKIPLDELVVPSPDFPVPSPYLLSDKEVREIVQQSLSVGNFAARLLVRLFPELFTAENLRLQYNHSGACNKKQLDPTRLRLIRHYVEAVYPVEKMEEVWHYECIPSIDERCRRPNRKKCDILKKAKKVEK

SP3, sequence (Q02447 whole entry): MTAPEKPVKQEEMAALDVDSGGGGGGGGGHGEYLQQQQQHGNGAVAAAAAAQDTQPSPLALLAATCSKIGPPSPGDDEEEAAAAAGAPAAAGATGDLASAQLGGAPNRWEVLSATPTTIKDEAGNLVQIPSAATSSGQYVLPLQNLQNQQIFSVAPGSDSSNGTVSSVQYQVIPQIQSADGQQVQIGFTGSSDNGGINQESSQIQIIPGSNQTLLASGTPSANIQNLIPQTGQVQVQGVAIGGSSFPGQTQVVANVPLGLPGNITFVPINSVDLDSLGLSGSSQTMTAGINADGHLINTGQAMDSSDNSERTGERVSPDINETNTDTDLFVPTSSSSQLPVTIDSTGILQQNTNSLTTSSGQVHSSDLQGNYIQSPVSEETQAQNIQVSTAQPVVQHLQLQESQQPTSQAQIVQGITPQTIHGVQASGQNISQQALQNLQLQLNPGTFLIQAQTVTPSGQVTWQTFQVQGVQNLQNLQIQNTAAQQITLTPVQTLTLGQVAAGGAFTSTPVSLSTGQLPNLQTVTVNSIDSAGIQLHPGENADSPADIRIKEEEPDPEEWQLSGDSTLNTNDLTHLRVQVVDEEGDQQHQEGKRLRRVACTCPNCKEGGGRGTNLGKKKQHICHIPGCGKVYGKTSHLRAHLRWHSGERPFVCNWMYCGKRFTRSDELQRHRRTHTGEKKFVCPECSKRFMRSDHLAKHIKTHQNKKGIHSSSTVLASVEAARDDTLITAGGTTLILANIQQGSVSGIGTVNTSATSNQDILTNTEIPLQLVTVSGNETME
TFAP2A, sequence (P05549 whole entry): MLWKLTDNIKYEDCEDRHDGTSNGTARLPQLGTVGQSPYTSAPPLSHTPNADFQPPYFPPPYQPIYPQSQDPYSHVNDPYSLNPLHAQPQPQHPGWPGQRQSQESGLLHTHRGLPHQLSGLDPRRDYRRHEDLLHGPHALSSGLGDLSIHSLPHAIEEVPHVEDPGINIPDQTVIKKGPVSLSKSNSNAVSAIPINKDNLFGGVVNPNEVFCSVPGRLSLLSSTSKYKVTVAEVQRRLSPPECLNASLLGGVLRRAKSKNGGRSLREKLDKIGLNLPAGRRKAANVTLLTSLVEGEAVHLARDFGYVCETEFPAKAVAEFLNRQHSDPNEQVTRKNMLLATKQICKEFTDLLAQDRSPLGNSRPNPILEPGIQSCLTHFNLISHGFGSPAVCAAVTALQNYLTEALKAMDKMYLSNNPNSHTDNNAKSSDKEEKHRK

B1: CGCG bait (dsDNA)
DNA 1: GCCGCCGCCCTTCTCGCGAGACTGCCGGGCC
DNA 2: GGCCCGGCAGTCTCGCGAGAAGGGCGGCGGC
In the case of B1, the “apparent K (half saturation)” value is 6.9 nM and 11.3 nM in [1]; 333 nM in data set [2]; 153 nM in data set [3]; 203 nM in data set [4]; 323 nM in data set [5]; 83 nM in data set [6].

B2: SP/KLF negative control bait (dsDNA)
DNA 1: GAGAGAAAATAAAACTGGCT
DNA 2: AGCCAGTTTTATTTTCTCTC
With B2, the “apparent K (half saturation)” value in [2] is > 1180 nM.

B3: SP/KLF bait (dsDNA)
DNA 1: GAGAGCCCCGCCCCCTGGCT
DNA 2: AGCCAGGGGGCGGGGCTCTC
Consider B3, for which the “apparent K (half saturation)” value was 13.8 nM in data set [7]; 90.4 nM in data set [2]; 54.2 nM in data set [8]; 6.26 nM in data set [9]; 162 nM in data set [10].

B4: BEND3 bait (dsDNA)
DNA 1: GCCGCCGCCCTCCCACGCGCTGCCGGGCC
DNA 2: GGCCCGGCAGCGCGTGGGAGGGCGGCGGC
Turning to B4, the “apparent K (half saturation)” value in [7] was 289 nM; in data set [11], 346 nM; in [2], 110 nM; in [4], 56.4 nM; in [12], 227 nM; in [13] it was 166 nM.

For the origin of these results see article PMC10407929, “Determining DNA–Protein Binding Affinities and Specificities from Crude Lysates Using a Combined SILAC/TMT Labeling Strategy”.
